Experimental data: the supplement of paper PMC9170038

Test system: MS2 coat protein
Assay: apparent KD of MS2 coat protein; designed switch direction (-1 OFF switch, 1 ON switch): -1; higher = weaker reporter binding
In short: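 Normalised cluster fluorescence was curve-fitted, and each design's median over clusters is its apparent KD. Before this, SNAP-549-labelled MS2 coat protein was titrated from 0.7 or 1.5 nM, doubling to 3 µM, over RNA switches transcribed on Illumina chips by stalled E. coli RNA polymerase. Titrations had no input, 200 uM small-molecule ligand, or an oligonucleotide input, and steps lasted 0.8–1.5 h (lowest) to 10–20 min (highest).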

[1] = Eterna round: R95, input ligand: FMN 200 uM
[2] = Eterna round: R95, input ligand: microRNA oligo, concentration not stated
[3] = Eterna round: R95, input ligand: none
[4] = input ligand: microRNA oligo, concentration not stated

Row | Sequence | apparent KD of MS2 coat protein [2] | apparent KD of MS2 coat protein (input ligand: FMN 200 uM) | apparent KD of MS2 coat protein (input ligand: none) | also measured
1 | GGUACUAACACGAUAGUGUUAGUACUAUAAGCUUGUGUUACAUGAGGAUCACCCAUGUCCUCAUAAGCUCGUCUUGA [Mat - Sensor v3 - Turn-off var 2 - D91] (puzzle: Sensor v3, turn-off variant 2) | 640 nM |  |  | apparent KD of MS2 coat protein [1]: 38 nM; apparent KD of MS2 coat protein [3]: 36 nM
2 | GGUACUCAAAGAGUACCAAUACGAACAUGAGGAUCACCCAUGUAGGAUAUGCUACUCAAAGAGUAGCAGAAGGACGUGUACCCU [Far Half Aptamer v2] (Eterna round: R96, puzzle: Exclusion NG 3) |  | 59.9 nM | 24.8 nM | apparent KD of MS2 coat protein [4]: 21.9 nM
3 | GGUACUCAAAGAGUACCAAUACGAACAUGAGGAUCACCCAUGUAGGAUAUGCUACUCAAAGAGUAGCAGAAGGACGUGUAUCUU [Far Half Aptamer v3] (Eterna round: R96, puzzle: Exclusion NG 3) |  | 60.5 nM | 30.8 nM | apparent KD of MS2 coat protein [4]: 18.9 nM
4 | GGUAGAGUGGUAGGAUAUCCGUCUGUUUCAGUCGGAGAAGGACCACAGUCACUGGGUCCAUGUUUCAUGGAGACCUGAUCUACC [pwkr exNG1 F6.9] (Eterna round: R96, puzzle: Exclusion NG 1) |  | 26.9 nM | 130 nM | apparent KD of MS2 coat protein [4]: 59.7 nM
5 | GGUAUACAUGAGGAUCACCCAUGUCAGGAUAUGGCGGCGUCGGCGAAAGCGGAGGCGGCCAGAAGGGACGAUAG [AK-MS2ROC-r4-exclusion1-6.1] (Eterna round: R97, puzzle: Exclusion 1) |  | 70.7 nM | 124 nM | 
6 | GGUCUGCGAGGAUAUACAUGAGGAUCACCCAUGUGCGAGUUACUUGUGAGGUCGGUUGGUAGAAGGCGCGGACG [JL-ex3-2.10 salish99 mod] (puzzle: Exclusion 3) | 68.6 nM |  |  | apparent KD of MS2 coat protein [1]: 51.9 nM; apparent KD of MS2 coat protein [3]: 86.8 nM
7 | GGUCUUCAAGUCAGGAUAUCGUAUAAUAGAUAUAACGAGAAGGGACAUGAGGAUCACCCAUGUCGUCUCAUCAG [Ex4 #21] (Eterna round: R97, puzzle: Brourd's mod of Exclusion 4) |  | 83.9 nM | 27 nM | 
8 | GGUGCGUAUGUGAGGAUAUGCUGGUCCUUGGAUCAGCAGAAGGCACAUGAGGAUCACCCAUGUGGUGUCGUUCC [salish99_Bmod_Ex4_020] (puzzle: Brourd's mod of Exclusion 4) | 363 nM |  |  | 
9 | GGUGCGUAUGUGAGGAUAUGCUGGUCCUUGGAUCGGCAGAAGGCACAUGAGGAUCACCCAUGUGGUGUCGUACA [salish99_Bmod_ex4_087] (puzzle: Brourd's mod of Exclusion 4) | 232 nM |  |  | 
10 | GGUGCGUAUGUGAGGAUAUGCUGGUCCUUGGCUCAGCAGAAGGCACAUGAGGAUCACCCAUGUGGUGUCGUACC [salish99_Bmod_Ex4_027] (puzzle: Brourd's mod of Exclusion 4) | 229 nM |  |  | 
11 | GGUGCGUAUGUGAGGAUAUGCUGGUCCUUGGCUCGGCAGAAGGCACAUGAGGAUCACCCAUGUGGUGUCGUACG [salish99_Bmod_ex4_063] (puzzle: Brourd's mod of Exclusion 4) | 36.5 nM |  |  | apparent KD of MS2 coat protein [1]: 249 nM; apparent KD of MS2 coat protein [3]: 54.4 nM
12 | GGUGCGUUUGUGAGGAUAUGCUGGUCCUUGGAUCAGCAGAAGGCACAUGAGGAUCACCCAUGUGGUGUCGUUCC [salish99_Bmod_Ex4_037] (puzzle: Brourd's mod of Exclusion 4) | 137 nM |  |  | 
13 | GGUGCGUUUGUGAGGAUAUGCUGGUCCUUGGUUCGGCAGAAGGCACAUGAGGAUCACCCAUGUGGUGUCGCUCC [salish99_Bmod_Ex4_050] (puzzle: Brourd's mod of Exclusion 4) | 36.4 nM |  |  | 
14 | GGUGGGAGGGAUGUGGUGUACAUGAGGAUCACCCAUGUGGUGGACGGGCGCGGGUGCGGGUUUUUUGUUCGUCUUGU [High Nucleotide Full Attached] (Eterna round: R97, puzzle: Sensor, turn-off variant 1) |  | 131 nM | 159 nM | 
15 | GGUGUGAGGCAGGAUAUGCAAUAAGUAAGUAAAGCAGAAGGGUCUACAUGAGGAUCACCCAUGUGUGCGGUAGA [Ex6 #1] (Eterna round: R97, puzzle: Exclusion 6) |  | 249 nM | 163 nM | 
16 | GGUUAUUGCAAGGAUAUGCUUAUUUGAGAAAUUGCAGAAGGUGCAACAUGAGGAUCACCCAUGUUGGAUGGGUU [JR_E6_Sub016] (puzzle: Exclusion 6) | 60.7 nM |  |  | 

Row | Sequence | apparent KD of MS2 coat protein [2] | apparent KD of MS2 coat protein (input ligand: FMN 200 uM) | apparent KD of MS2 coat protein (input ligand: none) | also measured
17 | GGUUAUUGCAAGGAUAUGCUUUUUUUUGAUAUUGCAGAAGGUGCAACAUGAGGAUCACCCAUGUUGGAGGGAUU [JR_E6_Sub020] (puzzle: Exclusion 6) | 32.7 nM |  |  | 
18 | GGUUAUUGCAAGGAUAUGCUUUUUUUUUAUAUUGCAGAAGGUGCAACAUGAGGAUCACCCAUGUUGGAGGGAUU [JR_E6_Sub021] (puzzle: Exclusion 6) | 28.9 nM |  |  | 
19 | GGUUGACAUGAGGAUCACCCAUGUGAGGAUAUGCGAGAGAAAAAAGUGAGGAAGAGAUGCAGAAGGCGCUGUCG [salish99-ex1_r3_016] (puzzle: Exclusion 1) | 85.8 nM |  |  | apparent KD of MS2 coat protein [1]: 68.5 nM; apparent KD of MS2 coat protein [3]: 121 nM
20 | GGUUGGCGAGGAUAUACAUGAGGAUCACCCAUGUCAGAGAAAAAAGUGAGGAAGAAAAGUAGAAGGCGCUGACG [salish99_ex3_r3_017] (puzzle: Exclusion 3) | 210 nM |  |  | apparent KD of MS2 coat protein [1]: 199 nM; apparent KD of MS2 coat protein [3]: 118 nM
21 | GGUUGGCGAGGAUAUACAUGAGGAUCACCCAUGUGAGAGAAAAAAGUGAGGAAGCAAAGUAGAAGGCGCUGACG [salish99_ex3_r3_034] (puzzle: Exclusion 3) | 42.8 nM |  |  | apparent KD of MS2 coat protein [1]: 117 nM; apparent KD of MS2 coat protein [3]: 77.8 nM
22 | GGUUGGCGAGGAUAUACAUGAGGAUCACCCAUGUGAGAGAAAAAAGUGAGUAAGAAAAGUAGAAGGCGCUGACG [salish99-ex3-33] (Eterna round: R96, puzzle: Exclusion 3) |  | 401 nM | 47.3 nM | apparent KD of MS2 coat protein [4]: 51 nM
23 | GGUUGGCGAGGAUAUACAUGAGGAUCACCCAUGUGAGAGAAAGAAGUGAGGAAGAAAAGUAGAAGGCGCUGACG [salish99_ex3_r3_005] (puzzle: Exclusion 3) | 196 nM |  |  | apparent KD of MS2 coat protein [1]: 542 nM; apparent KD of MS2 coat protein [3]: 59 nM
24 | GGUUGGCGAGGAUAUACAUGAGGAUCACCCAUGUGGUCCUAAAAUAAAAUAGACCUUUGUAGAAGGCGCGGGUC [salish99_ex3_r4_040] (Eterna round: R97, puzzle: Exclusion 3) |  | 139 nM | 215 nM | 
25 | GGUUGGCGAGGAUAUACAUGAGGAUCACCCAUGUGGUCCUGUGGCUGGAAAAACCUUUGUAGAAGGCGCGGGUC [salish99_ex3_r4_028] (Eterna round: R97, puzzle: Exclusion 3) |  | 258 nM | 184 nM | 
26 | GGUUUGCGGCAGGAUAUCCAUCCGCGGUGUGGUGGAGAAGGGCUGACAUGAGGAUCACCCAUGUGCGUCCUGGU [salish99_ex6_r4_021] (Eterna round: R97, puzzle: Exclusion 6) |  | 36.3 nM | 21.8 nM | 
27 | GGUUUGGGAGGAUAUGGUUUGAAUAACAUGAGGAUCACCCAUGUAAAUAGAUCUUCUAGGCCAGAAGGCUCGGGCC [-22.1, -20.72 kcal, A 28%] (Eterna round: R97, puzzle: Exclusion 5) |  | 46 nM | 27.8 nM | 
28 | GUAAACGAAGAGGAUAUUUGAUAUCAAAGCUUCAAAGAAGGCUUCACAUGAGGAUCACCCAUGUGAUCUUCAAA [Mat - Exclusion 6 - JL Mod - D18] (Eterna round: R97, puzzle: Exclusion 6) |  | 191 nM | 23.3 nM | 
29 | GUAAUUAUAUAGGAUAUCGAACUUAUUAUUUAACGAGAAGGAUGAACAUGAGGAUCACCCAUGUGGUAUCAUGG [JL-ex6-3.06] (puzzle: Exclusion 6) | 175 nM |  |  | 
30 | GUACUGAAGCAUAGCUUUAGUCGUACAUGAGGAUCACCCAUGUAGGAUAUGGUAGGCUUUGCUUACUAGAAGGAUAGAGUGAUC [Mat - Exclusion NG 3 - Mod of JL - D71] (Eterna round: R96, puzzle: Exclusion NG 3) |  | 157 nM | 109 nM | apparent KD of MS2 coat protein [4]: 86.8 nM
31 | GUACUGACAGGAUAUACAUGAGGAUCACCCAUGUCCUUAAGCUGACAAAAGUCAGCGAGUAGAAGGGUCUGUAC [Omei Ex3 Model Bachelor's Dilema v4] (Eterna round: R97, puzzle: Exclusion 3) |  | 467 nM | 71.9 nM | 
32 | GUAGAGUAAGGAUAUAGAGAAUAGGAUAGAAUGGUUAGAAUCUAGAAGGUACAUGAGGAUCACCCAUGUAAUGU [Excluse me!!!! 7 - Jieux - Exclusion 4] (puzzle: Exclusion 4) | 18.7 nM |  |  | 
